Reference: patent publication US20230065782

What was measured:
[1] = tested on: control peptide, an HES-bearing peptide of the same length, with the same labeling, that does not contain the conformation-dependent cleavage site
[2] = tested on: eighteen amino acid peptide containing the amino acid sequence PLGIA, covalently labeled with the same fluorophore near each end (HES structure)

matrix metalloprotease-9 (MMP-9)
fluorescence intensity on addition of the MMP [1]: The fluorescence of the latter does not increase upon addition of the MMP
fluorescence intensity on cleavage of the HES peptide (peptide at 2 uM, pH 7.5 buffer) [2]: Cleavage of the peptide gives rise to an increase in fluorescence intensity
reverse-phase HPLC retention time of the peptide before and after exposure to the protease [2]: After exposure to MMP-9, the major peaks were at ca. 30 and 31 minutes with the almost complete disappearance of the 38 minute peak
